Experimental data as given in article PMC4742278 (2016).

Legend:
[1] = molecular target: T1, EBNA2_(381–389) peptide with an additional Gly-Tyr dipeptide at the C-terminus (NH2-[…]-CONH2) (Epstein-Barr virus, strain B95-8, C-terminal amide (CONH2)); assay: ITC
[2] = molecular target: T1, EBNA2_(381–389) peptide with an …; assay: ITC; N fixed to 1

Row | Binder | Kd [1] [µM] | Kd [2] [µM]
1 | QTKKKQWCYNCEEEAMAHCCWNTSYCSIKCQQEHWHAEHKRTCRRKR (domain or fragment) [BS69_(MYND) Y532A] | 64.5 | 
2 | QTKKKQWCYNCEEEAMYHCCWNTSYCSIKCQQEHWHAEHKRTCRAKR (domain or fragment) [BS69_(MYND) R560A] |  | ~279
